Our source for the abundance fitness values is the Human Domainome abundance scans (Beltran et al. 2025).

± gives the uncertainty stated by the source.

To fix the notation:
B1: POU domain, class 4, transcription factor 1, residues 266 to 347; numbered along this chain, Q01851 (parent)
chain: RELEAFAERFKQRRIKLGVTQADVGSALANLKIPGVGSLSQSTICRFESLTLSHNNMIALKPILQAWLEEAEGAQREKMNKP
B2: Pituitary-specific positive transcription factor 1, residues 130 to 198; numbered along this chain, P28069 (parent)
chain: RELEKFANEFKVRRIKLGYTQTNVGEALAAVHGSEFSQTTICRFENLQLSFKNACKLKAILSKWLEEAE

In one series the parent is B1. The series can be described thus: abundance fitness (aPCA) (normalised: wild type 0, dead -1); higher = more abundant; growth selection in yeast, the domain comes from the species named. To be noted: Homo sapiens.
Turning to LELEAFAERFKQRRIKLGVTQADVGSALANLKIPGVGSLSQSTICRFESLTLSHNNMIALKPILQAWLEEAEGAQREKMNKP [R1L], the abundance fitness was -0.084 ± 0.059.

Regarding VELEAFAERFKQRRIKLGVTQADVGSALANLKIPGVGSLSQSTICRFESLTLSHNNMIALKPILQAWLEEAEGAQREKMNKP [R1V], the abundance fitness was -0.09 ± 0.038.

The variants in a further series derive from B2. Described as above. To be noted: Homo sapiens.
In the case of RELEKFANEFKVRRIKLGYTQTNVGEALAAVHGSEFSQTTICRFENLQLSFKNACKLKAILSKWLEEAD [E69D], the abundance fitness was -0.28 ± 0.16.

As to RELEKFANEFKVRRIKLGYTQTNVGEALAAVHGSEFSQTTICRFENLQLSFKNACKLKAILSKWLEEAQ [E69Q], the abundance fitness was -0.635 ± 0.22.

Consider RELEKFANEFKVRRIKLGYTQTNVGEALAAVHGSEFSQTTICRFENLQLSFKNACKLKAILSKWLEEAP [E69P], for which the abundance fitness is -0.433 ± 0.23.

Consider RELEKFANEFKVRRIKLGYTQTNVGEALAAVHGSEFSQTTICRFENLQLSFKNACKLKAILSKWLEEAA [E69A], for which the abundance fitness is -0.436 ± 0.12.

Regarding RELEKFANEFKVRRIKLGYTQTNVGEALAAVHGSEFSQTTICRFENLQLSFKNACKLKAILSKWLEEAC [E69C], the abundance fitness is -0.537 ± 0.11.

As for RELEKFANEFKVRRIKLGYTQTNVGEALAAVHGSEFSQTTICRFENLQLSFKNACKLKAILSKWLEEAF [E69F], the abundance fitness is -0.616 ± 0.32.

For the variant RELEKFANEFKVRRIKLGYTQTNVGEALAAVHGSEFSQTTICRFENLQLSFKNACKLKAILSKWLEEAS [E69S], the abundance fitness is -0.4 ± 0.14.

For the variant RELEKFANEFKVRRIKLGYTQTNVGEALAAVHGSEFSQTTICRFENLQLSFKNACKLKAILSKWLEEAR [E69R], the abundance fitness is -0.706 ± 0.13.

As to RELEKFANEFKVRRIKLGYTQTNVGEALAAVHGSEFSQTTICRFENLQLSFKNACKLKAILSKWLEEAL [E69L], the abundance fitness was -0.719 ± 0.28.

With RELEKFANEFKVRRIKLGYTQTNVGEALAAVHGSEFSQTTICRFENLQLSFKNACKLKAILSKWLEEAV [E69V], the abundance fitness was -0.874 ± 0.29.

As to RELEKFANEFKVRRIKLGYTQTNVGEALAAVHGSEFSQTTICRFENLQLSFKNACKLKAILSKWLEYAE [E67Y], the abundance fitness is -0.36 ± 0.09.

As for RELEKFANEFKVRRIKLGYTQTNVGEALAAVHGSEFSQTTICRFENLQLSFKNACKLKAILSKWLEQAE [E67Q], the abundance fitness was -0.125 ± 0.11.

Consider RELEKFANEFKVRRIKLGYTQTNVGEALAAVHGSEFSQTTICRFENLQLSFKNACKLKAILSKWLEWAE [E67W], for which the abundance fitness is -0.203 ± 0.1.

On to RELEKFANEFKVRRIKLGYTQTNVGEALAAVHGSEFSQTTICRFENLQLSFKNACKLKAILSKWLEVAE [E67V], for which the abundance fitness was -0.39 ± 0.073.

With RELEKFANEFKVRRIKLGYTQTNVGEALAAVHGSEFSQTTICRFENLQLSFKNACKLKAILSKWLERAE [E67R], the abundance fitness is -0.172 ± 0.058.

Consider RELEKFANEFKVRRIKLGYTQTNVGEALAAVHGSEFSQTTICRFENLQLSFKNACKLKAILSKWLESAE [E67S], for which the abundance fitness is -0.088 ± 0.056.

With RELEKFANEFKVRRIKLGYTQTNVGEALAAVHGSEFSQTTICRFENLQLSFKNACKLKAILSKWLETAE [E67T], the abundance fitness was -0.371 ± 0.097.

Take RELEKFANEFKVRRIKLGYTQTNVGEALAAVHGSEFSQTTICRFENLQLSFKNACKLKAILSKWLENAE [E67N]: the abundance fitness was -0.134 ± 0.099.

Regarding RELEKFANEFKVRRIKLGYTQTNVGEALAAVHGSEFSQTTICRFENLQLSFKNACKLKAILSKWLEPAE [E67P], the abundance fitness was -0.721 ± 0.26.

Consider RELEKFANEFKVRRIKLGYTQTNVGEALAAVHGSEFSQTTICRFENLQLSFKNACKLKAILSKWLEEHE [A68H], for which the abundance fitness was -0.271 ± 0.1.

Take RELEKFANEFKVRRIKLGYTQTNVGEALAAVHGSEFSQTTICRFENLQLSFKNACKLKAILSKWLEEME [A68M]: the abundance fitness was -0.061 ± 0.084.

On to RELEKFANEFKVRRIKLGYTQTNVGEALAAVHGSEFSQTTICRFENLQLSFKNACKLKAILSKWLEENE [A68N], for which the abundance fitness was -0.24 ± 0.077.

As to RELEKFANEFKVRRIKLGYTQTNVGEALAAVHGSEFSQTTICRFENLQLSFKNACKLKAILSKWLEEFE [A68F], the abundance fitness is -0.747 ± 0.23.

As to RELEKFANEFKVRRIKLGYTQTNVGEALAAVHGSEFSQTTICRFENLQLSFKNACKLKAILSKWLEETE [A68T], the abundance fitness was -0.05 ± 0.13.

For RELEKFANEFKVRRIKLGYTQTNVGEALAAVHGSEFSQTTICRFENLQLSFKNACKLKAILSKWLEEKE [A68K], the abundance fitness was found to be 0.047 ± 0.15.

On to RELEKFANEFKVRRIKLGYTQTNVGEALAAVHGSEFSQTTICRFENLQLSFKNACKLKAILSKWLEEVE [A68V], for which the abundance fitness was -0.071 ± 0.071.

As for RELEKFANEFKVRRIKLGYTQTNVGEALAAVHGSEFSQTTICRFENLQLSFKNACKLKAILSKWLEEGE [A68G], the abundance fitness is -0.664 ± 0.15.

For the variant RELEKFANEFKVRRIKLGYTQTNVGEALAAVHGSEFSQTTICRFENLQLSFKNACKLKAILSKWLEESE [A68S], the abundance fitness was -0.518 ± 0.15.

Take RELEKFANEFKVRRIKLGYTQTNVGEALAAVHGSEFSQTTICRFENLQLSFKNACKLKAILSKWLEECE [A68C]: the abundance fitness was -0.752 ± 0.22.

With RELEKFANEFKVRRIKLGYTQTNVGEALAAVHGSEFSQTTICRFENLQLSFKNACKLKAILSKWLEEEE [A68E], the abundance fitness is -0.003 ± 0.063.

In the case of RELEKFANEFKVRRIKLGYTQTNVGEALAAVHGSEFSQTTICRFENLQLSFKNACKLKAILSKWLEELE [A68L], the abundance fitness is -0.778 ± 0.17.

On to RELEKFANEFKVRRIKLGYTQTNVGEALAAVHGSEFSQTTICRFENLQLSFKNACKLKAILSKWLEERE [A68R], for which the abundance fitness was -0.232 ± 0.077.

Take RELEKFANEFKVRRIKLGYTQTNVGEALAAVHGSEFSQTTICRFENLQLSFKNACKLKAILSKWLEEDE [A68D]: the abundance fitness is -0.78 ± 0.34.

On to RELEKFANEFKVRRIKLGYTQTNVGEALAAVHGSEFSQTTICRFENLQLSFKNACKLKAILSKWLEEIE [A68I], for which the abundance fitness was 0.128 ± 0.45.
